Experimental data as given in patent US20050069542A1 (Human Genome Sciences, published 2005).
Positions count from the first letter of the chain named.

B1: GMBC603 (scFv)
scFv: QVQLVQSGGGVVRPGGSLRLSCAASGFTFDDYGMSWVRQAPGKGLEWVSGINWNGGSTGYADSVKGRFTISRDNAKNSLYLQMNSLRAEDTALYYCAKDLNYDFWSGSGMDVWGRGTLVTVSSGGGGSGGGGSGGGGSQSVLTQPASVSGSPGQSITISCTGTSSDVGGYNYVSWYQQHPGKAPKLMIYEGSKRPSGVSNRFSGSKSGNTASLTISGLQAEDEADYYCSSYTTRSTRVFGGGTKLTVLG
B2: GMBC613 (scFv)
scFv: KVQLVESGGGLVQPGGSLRLSCAASGFTISSHWMSWVRQAPGKGLEWVASIKQDGREKHFVDSVKGRFSISRDNAKNSLYLQMNSLRTEDTAVYYCARETYGGYYYYFMDVWGKGTLVTVSSGGGGSGGGGSGGGGSSELTQDPAVSVALGQTVRITCQGDSLRSYYASWYQQKPGQAPVLVIYGKNNRPSGIPDRFSGSSSGNTASLTITGAQAEDEADYYCNSRDSSGNHVVFGGGTKLTVLG
B3: GMBC692 (scFv)
scFv: EVQLVQSGGGLVKPGGSLRLSCAASGFTFSDAWMNWVRQAPGKGLEWVGRIKSKGSGGTIDYAAPVKDRFTISRDDSKNTLYLQMNSLKTEDTALYYCTWDWDFYYGMNVWGRGTLVTVSSGGGGSGGGGSGGGGSQSVLTQPASVSGSPGQSITISCTGTSSDVGGYNYVSWYQQHPGKAPKLMIYEGSKRPSGVSNRFSGSKSGNTASLTISGLQAEDEADYYCSSYTTRSTRVFGGGTKLTVLG
B4: GMBC605 (scFv)
scFv: B3 scFv with E1Q, A23E, A24T, T28K
B5: GMBC607 (scFv)
scFv: B3 scFv with T80M, Q84E, R113Q, L116M, G167D
B6: GMBC614 (scFv)
scFv: B3 scFv with L116M
B7: GMBC615 (scFv)
scFv: B3 scFv with Q6E, T28K, R113K, T118A
B8: GMBC616 (scFv)
scFv: EVQLVESGGGLVKPGGSLRLSCAASGFTFSDAWMNWVRQAPGKGLEWVGRIKSKGSGGTTDYAAPVKDRFTISRDDSENTLYLQMNSLKTEDTAVYYCTWDHSYYYDMAVWGRGTLVTVSSGGGGSGGGGSGGGGSQSVLTQPPFVSGSPGQSITISCTGTSSDVGGYNYVSWYQQHPGKAPKLMIYEGSKRPSGVSNRFSGSKSGNTASLTISGLQAEDEADYYCSSYTTRSTRVFGGGTKLTVLG
B9: GMBC620 (scFv)
scFv: B3 scFv with Q6E, L116M
B10: GMBC625 (scFv)
scFv: B3 scFv with G55R, N79D, L81M, R113Q, L116M, S201F
B11: GMBC634 (scFv)
scFv: B3 scFv with E1Q, R113Q
B12: GMBC645 (scFv)
scFv: B3 scFv with Q6E, A24G, T28K, D61E, T71I, N79D, K242E
B13: GMBC647 (scFv)
scFv: B3 scFv with Q6E, R113Q, L116T
B14: GMBC649 (scFv)
scFv: B3 scFv with E1Q
B15: GMBC651 (scFv)
scFv: B3 scFv with Q6E, K13Q, L116M
B16: GMBC654 (scFv)
scFv: B3 scFv with Q6E, S7T, K13E, G55R, T90I, R113K, L116T
B17: GMBC658 (scFv)
scFv: B3 scFv with L116T
B18: GMBC660 (scFv)
scFv: B3 scFv with T28I, R113Q, L116P
B19: GMBC664 (scFv)
scFv: B3 scFv with Q6E, S7T, G10A, G112S, L116M
B20: GMBC667 (scFv)
scFv: B3 scFv with E1Q, V5Q, Q6E, A24G, T28P, T71R, K89N, T90I, R113Q, L116T
B21: GMBC670 (scFv)
scFv: B3 scFv with Q6E, S7T, A23V, T71I, M85V, R113Q
B22: GMBC672 (scFv)
scFv: B3 scFv with E1Q, R113Q, G239E
B23: GMBC676 (scFv)
scFv: B3 scFv with K13Q, D31H, G55A, Q84H, L116M, S153P
B24: GMBC679 (scFv)
scFv: B8 scFv with E1Q, P144A, F145S, M185V
B25: GMBC684 (scFv)
scFv: B3 scFv with E1Q, T28K, R113Q, L116P, V139A
B26: GMBC686 (scFv)
scFv: B3 scFv with R113Q, L116T
B27: GMBC690 (scFv)
scFv: B3 scFv with L11V, K13Q, G16R, N169I, K180R
B28: GMBC693 (scFv)
scFv: B3 scFv with E1Q, Q6E, R113K, N207D
B29: GMBC727 (scFv)
scFv: EVQLVESGGDTVKPGGSLRLSCAGSGFTFSDAWMNWVRQAPGKGLEWVGRMKSKGSGGTRDYAAPVNGRFTISRDDSKNTLYLQMNSLNTEDTGVYYCTWDWDFYYGMNVWGRGTLVTVSSGGGGSGGGGSGGGGSQSVLTQPASVSGSPGQSITISCTGTSSDVGGYNYVSWYQQHPGKAPKLMIYEGSKRPSGVSNRFSGSKSGNTASLTISGLQAEDEADYYCSSYTTRSTRVFGGGTKLTVLG
B30: GMBC617 (scFv)
scFv: EVQLVETGGGLVQPGGSLRLSCAASGFTVSSNYMSWVRQAPGKGLEWVSVIYSGGSTYYADSVKGRFTISRHNSKNTLYLQMNSLRAEDTAVYYCARGLWFGELLYWGQGTLVTVSSGGGGSGGGGSGGGGSQSALTQPASVSGSRGQSITISCTGTTGDVGGYDYVSWYQQHPGKAPKLLIYGNSNRPSGVPDRFSASKSGNTASLTISGLQAEDEADYFCSTYAPPGIIMFGGGTKLTVLG
B31: GMBC618 (scFv)
scFv: EVQLVQSGGGLVKPGGSLRLSCAASGFKFDDAWMNWVRQAPGKGLEWVGRIKSKRSGGTIDYAAPVKDRFTISRDDSKNTLYLQMNSLRTEDTALYYCTWDWDFYYGMNVWGRGTLVTVSSGGGGSGGGGSGGGGSQSVLTQPPSASGTPGQRVTISCSGSSSNIGSNTVNWYQRLPGAAPQLLIYNNDQRPSGIPDRFSGSKSGTSGSLVISGLQSEDEADYYCASWDDSLNGRVFGGGTKLTVLG

Biological target: T1, flag-tagged soluble TL3 (amino acids 105-251 of SEQ ID NO:234) (Homo sapiens (Human), UniProt O75888 105-250)
T1 construct: Heterologous flag-tagged control protein, immobilized in the ELISA; also called flagged tagged TL-3; not shown: Flag tag
T1 sequence: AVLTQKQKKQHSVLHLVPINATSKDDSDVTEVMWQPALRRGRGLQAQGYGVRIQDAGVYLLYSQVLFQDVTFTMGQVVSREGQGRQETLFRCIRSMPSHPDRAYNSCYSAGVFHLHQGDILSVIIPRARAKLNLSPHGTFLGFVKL
Assay: phage ELISA on immobilized flag-tagged soluble TL3
Description: The individual phage isolates in the panel of phage, each phage expressing a unique scFv that bound to flag-tagged GMAD, were tested to ensure specificity for GMAD using an ELISA assay. The scFvs were tested in an ELISA for their ability to bind a heterologous flag-tagged protein, in this case—immobilized soluble TL3 (amino acids 105-251 of SEQ ID NO:234, GenBank Accesion Number NP_{—}003799, also described in International Patent Application Publication Number WO97/33902 and WO2001/96528 which are herein incorporated by reference in their entireties).

Binder	binding result
B1	no binding
B2	no binding
B3	no binding
B4	no binding
B5	no binding
B6	no binding
B7	no binding
B8	no binding
B9	no binding
B10	no binding
B11	no binding
B12	no binding
B13	no binding
B14	no binding
B15	no binding
B16	no binding

Binder	binding result
B17	no binding
B18	no binding
B19	no binding
B20	no binding
B21	no binding
B22	no binding
B23	no binding
B24	no binding
B25	no binding
B26	no binding
B27	no binding
B28	no binding
B29	no binding
B30	no binding
B31	no binding
